B1: Coiled-coil domain-containing protein 6 (Homo sapiens), Q16204 (parent)
chain: MADSASESDTDGAGGNSSSSAAMQSSCSSTSGGGGGGGGGGGGGKSGGIVISPFRLEELTNRLASLQQENKVLKIELETYKLKCKALQEENRDLRKASVTIQARAEQEEEFISNTLFKKIQALQKEKETLAVNYEKEEEFLTNELSRKLMQLQHEKAELEQHLEQEQEFQVNKLMKKIKKLENDTISKQLTLEQLRREKIDLENTLEQEQEALVNRLWKRMDKLEAEKRILQEKLDQPVSAPPSPRDISMEIDSPENMMRHIRFLKNEVERLKKQLRAAQLQHSEKMAQYLEEERHMREENLRLQRKLQREMERREALCRQLSESESSLEMDDERYFNEMSAQGLRPRTVSSPIPYTPSPSSSRPISPGLSYASHTVGFTPPTSLTRAGMSYYNSPGLHVQHMGTSHGITRPSPRRSNSPDKFKRPTPPPSPNTQTPVQPPPPPPPPPMQPTVPSAATSQPTPSQHSAHPSSQP

How the values were obtained:
Details in all cases: with fbxw7_human FBXW7, Q969H0
fbxw7_human FBXW7, Q969H0, sequence (Q969H0 whole entry): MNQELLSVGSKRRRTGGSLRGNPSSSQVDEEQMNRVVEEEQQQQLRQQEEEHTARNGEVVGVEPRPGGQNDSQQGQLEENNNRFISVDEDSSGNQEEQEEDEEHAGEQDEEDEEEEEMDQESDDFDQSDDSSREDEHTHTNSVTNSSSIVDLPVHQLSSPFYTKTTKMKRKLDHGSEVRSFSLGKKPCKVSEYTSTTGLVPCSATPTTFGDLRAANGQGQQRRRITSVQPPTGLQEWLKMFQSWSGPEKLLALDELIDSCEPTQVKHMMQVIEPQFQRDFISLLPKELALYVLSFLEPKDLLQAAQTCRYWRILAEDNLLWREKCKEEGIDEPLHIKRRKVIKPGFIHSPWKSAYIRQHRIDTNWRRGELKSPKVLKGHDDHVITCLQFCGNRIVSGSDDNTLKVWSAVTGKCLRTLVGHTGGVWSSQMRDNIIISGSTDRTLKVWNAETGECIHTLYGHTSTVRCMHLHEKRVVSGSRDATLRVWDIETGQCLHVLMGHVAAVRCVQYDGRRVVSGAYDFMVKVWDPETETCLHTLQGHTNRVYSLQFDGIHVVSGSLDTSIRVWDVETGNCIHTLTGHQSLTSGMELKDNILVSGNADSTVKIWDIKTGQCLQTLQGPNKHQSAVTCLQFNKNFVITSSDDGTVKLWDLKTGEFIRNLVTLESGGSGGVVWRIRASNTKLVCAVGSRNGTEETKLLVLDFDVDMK

[1] = variants of: B1
[2] = variants of: B1; remark: listed apart in the source
[3] = variants of: B1; remark: listed apart in the source
[4] = variants of: B1; remark: listed apart in the source
[5] = variants of: B1; remark: listed apart in the source

| Variant | effect of a mutation on the interaction [1] | effect of a mutation on the interaction [2] | effect of a mutation on the interaction [3] | effect of a mutation on the interaction [4] | effect of a mutation on the interaction [5] |
| --- | --- | --- | --- | --- | --- |
| T434A | disrupting interaction | – | – | – | – |
| S413A | – | disrupting interaction | decreasing interaction | – | – |
| S359A | – | disrupting interaction | – | decreasing interaction | – |
| T427A | – | disrupting interaction | – | – | decreasing interaction |

From IntAct's records for PubMed 23108047
